# Patent publication US20050074863A1, “T-cell epitodes in carboxypeptidase g2” (priority 2001, published 2005)
# Test system: human T-cells
# Test: Human PBMC in vitro proliferation assay with wild-type or modified CPG2 protein
# Format: cell-based
# Method: A modified protein was prepared according to the method of examples 3-5. The modified protein contained multiple substitutions from the wild-type sequence. Positive control protein was wild-type CPG2.
# For T cell proliferation assays 4×10^6 PBMC (per well) from healthy donors were incubated with unmodified and modified […] in 2 ml bulk cultures (in 24 well plates). Each donor culture was treated with modified and unmodified CPG2 at 5 and 50 μg/ml. In addition an untreated control bulk culture was maintained enabling stimulation indexes to be determined. At days 5, 6, 7 and 8 cells for each bulk culture were gently agitated and 50 μl samples removed in triplicate for determination of the proliferation index. The 50 μl sample aliquots were each transferred to 3 wells of a U-bottom 96 well plate. Fresh AIM V media (130 μl) was added to each of the 96 wells. Cells were pulsed (for 18-21 hours) with 1 μCi [^3H]Thymidine per well diluted in a total volume of 20 ul AIM V media. The total volume for each culture was 200 μl. CPM values were collected using a beta-plate reader and the stimulation index for each time point determined as per Example 2.
# The SI was plotted for each time point and treatment.
molecule,measurement,setting,value
"carboxypeptidase G2 (protein, UniProt P06621 23-415, looked up, 6xHis tag, bacterial enzyme from Pseudomonas sp. strain RS-16, 390 residues, recombinant 6xHis tagged; positive control protein) Carboxypeptidase G2: ALAQKRDNVLFQAATDEQPAVIKTLEKLVNIETGTGDAEGIAAAGNFLEAELKNLGFTVTRSKSAGLVVGDNIVGKIKGRGGKNLLLMSHMDTVYLKGILAKAPFRVEGDKAYGPGIADDKGGNAVILHTLKLLKEYGVRDYGTITVLFNTDEEKGSFGSRDLIQEEAKLADYVLSFEPTSAGDEKLSLGTSGIAYVQVNITGKASHAGAAPELGVNALVEASDLVLRTMNIDDKAKNLRFNWTIAKAGNVSNIIPASATLNADVRYARNEDFDAAMKTLEERAQQKKLPEADVKVIVTRGRPAFNAGEGGKKLVDKAVAYYKEAGGTLGVEERTGGGTDAAYAALSGKPVIESLGLPGFGYHSDKAEYVDISAIPRRLYMAARLIMDLGAGK",proliferative response (stimulation index) to whole protein,"responsive donors #1 and #16, 5 and 50 μg/ml, days 5-8, 3H-thymidine",significant proliferative response
same,time of peak proliferative response,"responsive donors, 5 and 50 μg/ml",7 days
